Reference: patent publication US20250282835A1

How the values were obtained:
Test in all cases: cell-based or functional assay
CytERm-mScarlet3 = target: CytERm-mScarlet3
CytERm-mScarlet-I3 = target: CytERm-mScarlet-I3
Cyterm fusion: dTomato = target: Cyterm fusion: dTomato
Cyterm fusion: mEGFP = target: Cyterm fusion: mEGFP
Cyterm-TagRFP-T = target: Cyterm-TagRFP-T
Cyterm-mCherry = target: Cyterm-mCherry
Cyterm-mScarlet = target: Cyterm-mScarlet
Cyterm-mScarlet-I = target: Cyterm-mScarlet-I

CytERm-mScarlet3
% cells with OSER (CytERm-mScarlet3): 7%

CytERm-mScarlet-I3
% cells with OSER (CytERm-mScarlet-I3): 5%

Cyterm fusion: dTomato
% cells with OSER (Cyterm fusion: dTomato): 82%

Cyterm fusion: mEGFP
% cells with OSER (Cyterm fusion: mEGFP): 11%

Cyterm-TagRFP-T
% cells with OSER (Cyterm-TagRFP-T): 64%

Cyterm-mCherry
% cells with OSER (Cyterm-mCherry): 18%

Cyterm-mScarlet
% cells with OSER (Cyterm-mScarlet): 8%

Cyterm-mScarlet-I
% cells with OSER (Cyterm-mScarlet-I): 8%
